One experiment has as its target T1, MAP1A1836-1851 (Homo sapiens (Human), UniProt P78559).
T1 chain: PSWLADIPPWVPKDRP
The experiment can be described thus: FP competition.

A further experiment concerns the target T2, ITB3763-778 (Homo sapiens (Human), UniProt P05106).
T2 chain: AKWDTANNPLYKEATS
The experiment can be described thus: FP competition.

B1: SFN 14-3-3 (protein)
chain: MERASLIQKAKLAEQAERYEDMAAFMKGAVEKGEELSCEERNLLSVAYKNVVGGQRAAWRVLSSIEQKSNEEGSEEKGPEVREYREKVETELQGVCDTVLGLLDSHLIKEAGDAESRVFYLKMKGDYYRYLAEVATGDDKKRIIDSARSAYQEAMDISKKEMPPTNPIRLGLALNFSVFHYEIANSPEEAISLAKTTFDEAMADLHTLSEDSYKDSTLIMQLLRDNLTLWTADNAGEEGGEAPQEPQS
As a reminder, the Kd is the equilibrium constant for the complex coming apart. A lower Kd goes with a tighter complex. In the experiment with MAP1A1836-1851, B1 came in with a Kd of 355 µM.

B2: TLN1 PTB (protein)
chain: GVSFFLVKEKMKGKNKLVPRLLGITKECVMRVDEKTKEVIQEWNLTNIKRWAASPKSFTLDFGDYQDGYYSVQTTEGEQIAQLIAGYIDIILK
In the experiment with ITB3763-778, B2 had a Kd of 500 µM.

Source of the values: PMC8769072 (2022).
